Source: the supplement of paper PMC10065799, “High-throughput profiling of sequence recognition by tyrosine kinases and SH2 domains using bacterial peptide display” (eLife, 2023)

Assays:
Fyn = Fyn (UniProt P06241); experiment: phosphorylation enrichment, bacterial display (enrichment ratio); higher = better substrate or ligand; peptides without Tyr show the background
Fer (mouse) = experiment: as above
Fes = Fes (UniProt P07332); experiment: as above
Jak2 = Jak2 (UniProt O60674); experiment: as above
Hck = Hck (UniProt P08631); experiment: as above
FGFR3 = FGFR3 (UniProt P22607); experiment: as above
EPHB2 = EPHB2 (UniProt P29323); experiment: as above
c-Src = experiment: as above
EPHB1 = EPHB1 (UniProt P54762); experiment: as above
FGFR1 = FGFR1 (UniProt P11362); experiment: as above
MERTK = MERTK (UniProt Q12866); experiment: as above
AncSZ = experiment: as above
c-Abl (mouse) = experiment: as above
c-Src SH2 = experiment: SH2 binding enrichment of the phosphorylated peptide, bacterial display (enrichment ratio); higher = better substrate or ligand; peptides without Tyr show the background
SHP2-C SH2 = experiment: as above
Grb2 SH2 = Grb2 SH2 (UniProt P62993); experiment: as above
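For SH2 binding enrichment of the phosphorylated peptide, bacterial display in this document: peptide library displayed on the E. coli surface as eCPX fusions, selected cells deep-sequenced, score is each peptide's frequency after selection divided by its frequency in the input.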
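For phosphorylation enrichment, bacterial display in this document: 11-residue human phosphosite peptides and single-mutation variants displayed on the E. coli surface, counted by deep sequencing, each peptide's frequency after selection divided by its frequency in the unselected input library; frequency after pTyr selection over input frequency; kinase dosed for 20-30% of maximal phosphorylation in three min.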

Sequence of EPHB2 (P29323 whole entry, looked up): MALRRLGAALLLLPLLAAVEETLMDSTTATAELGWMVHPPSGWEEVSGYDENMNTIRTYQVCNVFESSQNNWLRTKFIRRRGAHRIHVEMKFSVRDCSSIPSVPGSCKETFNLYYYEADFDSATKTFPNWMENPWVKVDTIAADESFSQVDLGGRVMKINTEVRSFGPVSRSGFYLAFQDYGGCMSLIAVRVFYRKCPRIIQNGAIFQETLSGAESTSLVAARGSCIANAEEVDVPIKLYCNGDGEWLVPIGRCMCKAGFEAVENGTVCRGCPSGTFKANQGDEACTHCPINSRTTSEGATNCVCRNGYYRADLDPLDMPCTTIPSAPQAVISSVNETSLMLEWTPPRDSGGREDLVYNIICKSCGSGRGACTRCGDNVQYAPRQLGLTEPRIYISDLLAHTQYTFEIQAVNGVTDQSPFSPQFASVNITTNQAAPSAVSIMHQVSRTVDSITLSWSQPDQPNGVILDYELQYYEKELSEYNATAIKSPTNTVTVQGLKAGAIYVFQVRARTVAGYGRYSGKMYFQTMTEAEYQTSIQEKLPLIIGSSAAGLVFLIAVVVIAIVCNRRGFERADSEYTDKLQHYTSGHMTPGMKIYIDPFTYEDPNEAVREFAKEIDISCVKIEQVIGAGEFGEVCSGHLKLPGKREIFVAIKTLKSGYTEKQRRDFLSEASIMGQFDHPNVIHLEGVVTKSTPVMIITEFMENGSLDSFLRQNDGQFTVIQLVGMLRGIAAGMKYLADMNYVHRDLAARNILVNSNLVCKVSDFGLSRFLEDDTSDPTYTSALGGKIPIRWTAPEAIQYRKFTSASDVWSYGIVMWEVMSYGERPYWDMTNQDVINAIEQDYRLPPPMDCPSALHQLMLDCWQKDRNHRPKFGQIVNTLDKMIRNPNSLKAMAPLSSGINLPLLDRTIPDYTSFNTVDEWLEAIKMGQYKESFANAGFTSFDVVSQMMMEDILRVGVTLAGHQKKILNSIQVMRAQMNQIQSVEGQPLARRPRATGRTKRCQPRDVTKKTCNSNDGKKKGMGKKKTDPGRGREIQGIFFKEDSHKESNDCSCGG
Sequence of Jak2 (O60674 whole entry, looked up): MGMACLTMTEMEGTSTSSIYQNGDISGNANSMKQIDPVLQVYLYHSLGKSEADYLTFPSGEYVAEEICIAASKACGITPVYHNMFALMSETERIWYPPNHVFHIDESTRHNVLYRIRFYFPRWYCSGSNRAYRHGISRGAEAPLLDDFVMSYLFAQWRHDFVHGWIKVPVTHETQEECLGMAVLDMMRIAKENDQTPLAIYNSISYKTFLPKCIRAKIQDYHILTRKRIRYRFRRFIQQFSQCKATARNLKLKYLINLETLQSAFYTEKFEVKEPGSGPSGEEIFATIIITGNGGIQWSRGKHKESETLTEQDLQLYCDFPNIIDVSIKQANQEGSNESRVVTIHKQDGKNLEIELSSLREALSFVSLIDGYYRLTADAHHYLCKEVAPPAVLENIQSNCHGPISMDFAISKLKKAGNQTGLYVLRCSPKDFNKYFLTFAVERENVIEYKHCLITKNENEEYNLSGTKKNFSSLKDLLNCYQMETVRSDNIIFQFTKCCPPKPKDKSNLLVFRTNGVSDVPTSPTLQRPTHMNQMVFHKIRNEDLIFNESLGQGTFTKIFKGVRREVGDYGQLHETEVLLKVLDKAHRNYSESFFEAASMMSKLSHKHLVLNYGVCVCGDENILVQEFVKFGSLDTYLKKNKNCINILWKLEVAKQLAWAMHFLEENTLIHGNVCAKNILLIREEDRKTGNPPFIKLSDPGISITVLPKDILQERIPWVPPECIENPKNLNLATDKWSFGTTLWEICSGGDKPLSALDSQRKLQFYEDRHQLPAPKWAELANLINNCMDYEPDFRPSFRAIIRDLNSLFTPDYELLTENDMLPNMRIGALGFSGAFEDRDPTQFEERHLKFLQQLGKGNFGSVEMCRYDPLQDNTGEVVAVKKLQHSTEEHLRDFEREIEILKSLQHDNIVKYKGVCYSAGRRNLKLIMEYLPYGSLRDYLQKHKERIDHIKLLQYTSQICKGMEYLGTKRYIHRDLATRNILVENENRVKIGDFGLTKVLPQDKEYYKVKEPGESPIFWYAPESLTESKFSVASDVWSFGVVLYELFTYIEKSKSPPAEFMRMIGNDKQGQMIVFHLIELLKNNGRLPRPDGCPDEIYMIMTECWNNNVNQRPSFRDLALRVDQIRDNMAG
Sequence of Hck (P08631 whole entry, looked up): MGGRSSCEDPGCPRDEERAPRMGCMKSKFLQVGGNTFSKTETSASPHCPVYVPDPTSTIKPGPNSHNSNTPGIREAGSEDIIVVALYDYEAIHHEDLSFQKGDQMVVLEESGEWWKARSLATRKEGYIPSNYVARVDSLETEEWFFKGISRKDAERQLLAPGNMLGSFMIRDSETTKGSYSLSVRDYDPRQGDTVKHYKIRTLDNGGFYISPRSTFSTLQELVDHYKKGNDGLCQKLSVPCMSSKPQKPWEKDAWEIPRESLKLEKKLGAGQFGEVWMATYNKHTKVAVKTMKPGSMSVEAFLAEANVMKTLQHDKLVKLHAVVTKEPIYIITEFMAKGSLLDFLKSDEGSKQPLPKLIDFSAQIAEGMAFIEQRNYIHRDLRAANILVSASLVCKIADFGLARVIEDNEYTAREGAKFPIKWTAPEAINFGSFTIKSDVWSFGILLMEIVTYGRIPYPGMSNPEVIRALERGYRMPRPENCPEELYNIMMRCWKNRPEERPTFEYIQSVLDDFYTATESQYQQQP
Sequence of Grb2 SH2 (P62993 whole entry, looked up, the tested form may be a part): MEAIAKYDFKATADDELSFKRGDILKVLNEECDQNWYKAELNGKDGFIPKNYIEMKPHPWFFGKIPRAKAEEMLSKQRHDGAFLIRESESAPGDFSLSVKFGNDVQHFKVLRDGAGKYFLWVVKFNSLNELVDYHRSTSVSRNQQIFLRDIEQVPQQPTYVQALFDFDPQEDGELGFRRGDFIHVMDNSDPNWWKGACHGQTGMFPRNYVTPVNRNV
Sequence of MERTK (Q12866 whole entry, looked up): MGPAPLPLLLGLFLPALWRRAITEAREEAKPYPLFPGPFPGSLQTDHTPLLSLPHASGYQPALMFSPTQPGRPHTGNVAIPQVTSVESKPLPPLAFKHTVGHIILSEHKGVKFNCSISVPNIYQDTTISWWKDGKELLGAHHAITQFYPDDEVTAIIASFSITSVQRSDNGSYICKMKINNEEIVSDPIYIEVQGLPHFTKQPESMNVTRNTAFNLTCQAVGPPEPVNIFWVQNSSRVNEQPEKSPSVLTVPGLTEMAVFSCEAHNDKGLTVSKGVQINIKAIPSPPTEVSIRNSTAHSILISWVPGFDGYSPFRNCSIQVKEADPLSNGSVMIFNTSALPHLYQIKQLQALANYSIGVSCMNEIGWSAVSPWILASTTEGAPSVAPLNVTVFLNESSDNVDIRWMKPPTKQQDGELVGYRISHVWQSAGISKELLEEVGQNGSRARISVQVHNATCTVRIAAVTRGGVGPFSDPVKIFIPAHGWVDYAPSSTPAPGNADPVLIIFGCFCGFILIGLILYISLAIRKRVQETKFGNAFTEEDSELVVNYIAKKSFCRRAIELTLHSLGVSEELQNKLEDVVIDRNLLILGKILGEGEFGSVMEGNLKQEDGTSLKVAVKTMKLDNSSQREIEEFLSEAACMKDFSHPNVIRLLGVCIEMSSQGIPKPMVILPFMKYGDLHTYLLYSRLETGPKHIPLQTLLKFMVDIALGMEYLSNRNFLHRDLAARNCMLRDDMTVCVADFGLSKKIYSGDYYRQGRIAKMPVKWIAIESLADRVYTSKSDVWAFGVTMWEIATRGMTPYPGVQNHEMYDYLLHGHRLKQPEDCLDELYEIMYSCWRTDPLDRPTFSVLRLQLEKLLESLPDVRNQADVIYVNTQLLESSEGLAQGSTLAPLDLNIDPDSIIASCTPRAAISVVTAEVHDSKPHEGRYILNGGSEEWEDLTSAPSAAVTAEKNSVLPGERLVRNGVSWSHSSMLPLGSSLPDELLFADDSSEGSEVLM
Sequence of FGFR3 (P22607 whole entry, looked up): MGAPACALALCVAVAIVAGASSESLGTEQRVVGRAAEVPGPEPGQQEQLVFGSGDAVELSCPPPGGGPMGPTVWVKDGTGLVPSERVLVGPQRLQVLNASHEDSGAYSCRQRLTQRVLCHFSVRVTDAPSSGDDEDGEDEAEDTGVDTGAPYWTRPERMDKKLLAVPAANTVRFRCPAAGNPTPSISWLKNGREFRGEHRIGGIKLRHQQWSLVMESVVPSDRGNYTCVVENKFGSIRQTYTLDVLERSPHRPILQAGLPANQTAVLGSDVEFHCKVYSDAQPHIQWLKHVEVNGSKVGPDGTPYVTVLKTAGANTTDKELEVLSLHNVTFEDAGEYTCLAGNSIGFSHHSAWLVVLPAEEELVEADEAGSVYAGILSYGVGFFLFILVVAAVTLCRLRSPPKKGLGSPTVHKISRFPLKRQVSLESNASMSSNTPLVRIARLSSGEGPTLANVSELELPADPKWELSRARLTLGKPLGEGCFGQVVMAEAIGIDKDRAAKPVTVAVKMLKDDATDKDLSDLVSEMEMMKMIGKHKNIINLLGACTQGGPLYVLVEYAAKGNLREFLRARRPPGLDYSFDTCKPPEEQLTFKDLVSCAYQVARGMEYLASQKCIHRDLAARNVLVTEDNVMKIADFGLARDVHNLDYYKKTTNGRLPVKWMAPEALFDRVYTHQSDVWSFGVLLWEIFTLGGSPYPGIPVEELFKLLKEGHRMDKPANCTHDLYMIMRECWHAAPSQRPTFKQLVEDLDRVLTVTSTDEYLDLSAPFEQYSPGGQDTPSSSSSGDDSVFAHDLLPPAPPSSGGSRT

Row | Sequence | phosphorylation enrichment (Fyn) | phosphorylation enrichment (Fer (mouse)) | phosphorylation enrichment (Fes) | phosphorylation enrichment (Jak2) | phosphorylation enrichment (Hck) | phosphorylation enrichment (FGFR3) | phosphorylation enrichment (EPHB2) | phosphorylation enrichment (c-Src) | phosphorylation enrichment (EPHB1) | phosphorylation enrichment (FGFR1) | phosphorylation enrichment (MERTK) | phosphorylation enrichment (AncSZ) | phosphorylation enrichment (c-Abl (mouse)) | SH2 binding enrichment (c-Src SH2) | SH2 binding enrichment (SHP2-C SH2) | SH2 binding enrichment (Grb2 SH2)
1 | KSVEEYANCHL [TF_Y593_P589S] | 0.458 | 0.466 | 0.85 | 0.688 | 0.486 | 0.666 | 0.429 | 0.408 | 0.482 | 0.475 | 0.521 | 0.756 | 0.628 | 1.14 | 0.782 | 1.14
2 | KSVLVYRNGDP [DCDC2_Y22] | 0.426 | 0.435 | 0.617 | 0.55 | 0.405 | 0.449 | 0.401 | 0.4 | 0.431 | 0.362 | 0.355 | 0.539 | 0.446 | 0.622 | 0.829 | 0.972
3 | KTNVSYFGALD [CACNB4_Y103_C104F] | 0.554 | 0.464 | 0.848 | 0.653 | 0.484 | 0.634 | 0.43 | 0.438 | 0.438 | 0.509 | 0.426 | 0.789 | 0.59 | 0.443 | 0.63 | 0.847
4 | KTSGNYLAVTG [WDR19_Y28] | 0.536 | 0.404 | 0.57 | 0.449 | 0.454 | 0.457 | 0.517 | 0.42 | 0.974 | 0.5 | 0.757 | 0.573 | 0.445 | 0.427 | 0.654 | 0.824
5 | KVGRVYLFLQP [ITGA2B_Y360_E355K] | 0.375 | 0.492 | 1.2 | 0.983 | 0.462 | 0.768 | 0.522 | 0.362 | 0.558 | 0.404 | 0.391 | 1.02 | 0.75 | 0.48 | 0.724 | 0.843
6 | KVKPIYFHTQG [AR_Y916] | 0.371 | 0.28 | 0.708 | 0.53 | 0.385 | 0.507 | 0.422 | 0.522 | 0.358 | 0.468 | 0.356 | 0.645 | 0.578 | 1.37 | 1.82 | 1.59
7 | KVKPIYLHTQG [AR_Y916_F917L] | 0.405 | 0.438 | 0.728 | 0.61 | 0.39 | 0.612 | 0.457 | 0.402 | 0.496 | 0.441 | 0.54 | 0.687 | 0.736 | 1.65 | 1.84 | 1.71
8 | KVNKIYHPDFI [LIG3_Y767_Y768H] | 0.417 | 0.395 | 0.627 | 0.574 | 0.488 | 0.539 | 0.417 | 0.43 | 0.39 | 0.398 | 0.443 | 0.542 | 0.473 | 0.494 | 0.999 | 0.889
9 | LAGRYYALKSM [CKB_Y174] | 0.668 | 0.545 | 0.852 | 1.29 | 0.783 | 0.957 | 0.417 | 0.67 | 0.541 | 1.45 | 3.22 | 1.24 | 0.594 | 1.67 | 2.14 | 1.21
10 | LAIELYVVVCK [RHO_Y136_R135L] | 1.14 | 1.17 | 3.23 | 2.07 | 0.861 | 1.64 | 2.06 | 1.11 | 2.12 | 1.4 | 0.597 | 2.14 | 2.59 | 0.458 | 0.67 | 0.976
11 | LANNEYFFQVC | 1.4 | 0.939 | 2.72 | 2.29 | 0.932 | 9.36 | 0.804 | 1.35 | 1.55 | 12.8 | 0.933 | 3.75 | 1.74 | 0.611 | 0.888 | 0.599
12 | LARDMHDKEFF [MET_Y1230_Y1230H_YF] | 0.821 | 0.362 | 0.864 | 1.15 | 0.812 | 0.661 | 0.757 | 0.671 | 0.723 | 0.625 | 0.907 | 1.08 | 0.91 | 0.423 | 0.668 | 0.884
13 | LARNMYDKEYY [MET_Y1230_D1228N] | 0.441 | 0.468 | 0.872 | 0.84 | 0.605 | 0.569 | 0.546 | 0.611 | 0.482 | 0.631 | 0.358 | 1.13 | 0.565 | 0.71 | 0.673 | 0.843
14 | LAVNPYGPPDP | 0.454 | 0.44 | 0.692 | 0.709 | 0.516 | 0.493 | 0.553 | 0.523 | 0.461 | 0.436 | 0.594 | 0.796 | 0.726 | 0.528 | 0.7 | 0.934
15 | LDFPEYDGVDR [CASQ1_Y43] | 0.75 | 0.719 | 2.01 | 2 | 1.11 | 1.37 | 0.865 | 1.5 | 0.633 | 0.59 | 0.556 | 2.6 | 1.48 | 0.625 | 0.667 | 1.57
16 | LDLSYYHTSSS [EMD_Y182_P183H] | 0.509 | 0.451 | 0.977 | 1.51 | 0.452 | 1.22 | 0.614 | 0.676 | 0.516 | 1.11 | 0.634 | 0.929 | 0.672 | 1.19 | 1.36 | 1.26
17 | LDYNEYFRGLN [HPRT1_Y198_D201G] | 1.6 | 1.06 | 1.95 | 3.42 | 2.6 | 1.85 | 1.37 | 0.892 | 1.28 | 2.77 | 0.733 | 2.67 | 0.847 | 0.445 | 0.812 | 0.865

Row | Sequence | phosphorylation enrichment (Fyn) | phosphorylation enrichment (Fer (mouse)) | phosphorylation enrichment (Fes) | phosphorylation enrichment (Jak2) | phosphorylation enrichment (Hck) | phosphorylation enrichment (FGFR3) | phosphorylation enrichment (EPHB2) | phosphorylation enrichment (c-Src) | phosphorylation enrichment (EPHB1) | phosphorylation enrichment (FGFR1) | phosphorylation enrichment (MERTK) | phosphorylation enrichment (AncSZ) | phosphorylation enrichment (c-Abl (mouse)) | SH2 binding enrichment (c-Src SH2) | SH2 binding enrichment (SHP2-C SH2) | SH2 binding enrichment (Grb2 SH2)
18 | LENSTYQYIHV [CRB1_Y760_R764H] | 3.32 | 17.8 | 1.68 | 1.18 | 7.21 | 5.6 | 5.17 | 3.15 | 11.2 | 9.48 | 7.77 | 2.84 | 1.01 | 1.45 | 1.06 | 1.05
19 | LEQRPYRRGSE [KCNJ12_Y427_E430G] | 0.424 | 0.447 | 0.683 | 0.576 | 0.523 | 0.511 | 0.478 | 0.399 | 0.348 | 0.365 | 0.442 | 0.651 | 0.594 | 0.419 | 0.733 | 0.891
20 | LFHENYNAGTF [CFI_Y421_I416L_YF] | 0.683 | 0.822 | 1.11 | 1.07 | 0.596 | 0.941 | 1.23 | 0.649 | 0.848 | 0.634 | 0.654 | 0.928 | 0.597 | 0.539 | 0.856 | 0.72
21 | LFMGDYVDRGY [PPP2CA_Y86] | 0.699 | 0.612 | 1.47 | 1.41 | 1.01 | 1.02 | 0.977 | 0.8 | 0.983 | 1.46 | 0.701 | 1.6 | 0.982 | 0.711 | 0.927 | 0.696
22 | LFPANYVAPMT [GRAP2_Y324] | 0.446 | 0.418 | 0.91 | 0.649 | 0.551 | 0.617 | 1.31 | 0.397 | 3.55 | 0.535 | 0.551 | 0.827 | 0.713 | 0.663 | 0.835 | 0.828
23 | LFSGDCFRIQG [DDR2_Y740_Y740C_YF] | 0.472 | 0.468 | 1.15 | 0.764 | 0.486 | 0.693 | 0.602 | 0.459 | 0.554 | 0.516 | 0.425 | 0.931 | 0.84 | 0.553 | 0.524 | 0.844
24 | LFSLGYHQSRW [GANAB_Y396] | 0.726 | 0.584 | 1.16 | 0.767 | 0.855 | 1.02 | 0.724 | 0.454 | 0.647 | 0.567 | 0.649 | 1.04 | 0.638 | 0.717 | 0.828 | 1.15
25 | LGGAMYFLEAD [PKHD1_Y452_E457D_YF] | 0.717 | 0.517 | 1.09 | 1.03 | 0.581 | 0.77 | 0.701 | 0.772 | 0.535 | 0.461 | 0.536 | 1.01 | 0.682 | 0.667 | 0.698 | 0.768
26 | LGGAMYYLEAD [PKHD1_Y452_E457D] | 1.7 | 0.664 | 1.48 | 1.19 | 1.08 | 1.6 | 0.672 | 1.86 | 0.839 | 1.36 | 1.62 | 1.39 | 0.956 | 1.1 | 0.762 | 0.83
27 | LGLDECLDKLK [FMNL2_Y352_Y352C] | 1.04 | 1.31 | 1.85 | 2.01 | 1.31 | 1.54 | 1.37 | 0.92 | 1.05 | 1.28 | 1.09 | 1.91 | 1.7 | 0.75 | 0.492 | 0.934
28 | LGPSDYFGEIA [PRKAR1A_Y323] | 0.705 | 0.579 | 1.14 | 1.08 | 0.602 | 1.12 | 0.727 | 0.68 | 0.696 | 1.39 | 0.605 | 1.76 | 0.746 | 0.51 | 0.599 | 0.878
29 | LGRKLYSIAAP [ABHD12_Y345] | 0.737 | 0.952 | 1.13 | 2.38 | 0.73 | 1.12 | 1.04 | 0.647 | 0.664 | 0.543 | 1.04 | 1.3 | 0.892 | 0.593 | 0.583 | 0.788
30 | LGRKLYSIATP [ABHD12_Y345_A349T] | 0.413 | 0.698 | 1.18 | 1.3 | 0.672 | 0.635 | 0.471 | 0.698 | 0.576 | 0.612 | 1.29 | 0.773 | 1.07 | 0.616 | 0.621 | 1.11
31 | LGSNTYPFLLT [SAG_Y120] | 0.505 | 0.793 | 1.22 | 0.785 | 0.54 | 1.4 | 0.655 | 0.543 | 0.77 | 1.11 | 0.589 | 1.26 | 0.938 | 0.487 | 0.804 | 0.695
32 | LINPKYSVEEE [PCDH19_Y27_L25P] | 0.797 | 0.977 | 2.28 | 1.65 | 0.55 | 1.36 | 0.986 | 0.608 | 1.06 | 0.753 | 0.836 | 1.8 | 1.39 | 0.786 | 0.548 | 1.92
33 | LKEIHYPPFTD [ALDH3B2_Y362_YF] | 0.437 | 0.413 | 0.9 | 0.659 | 0.437 | 0.555 | 0.541 | 0.401 | 0.425 | 0.474 | 0.329 | 0.819 | 0.559 | 0.505 | 0.644 | 0.922
